We go through 22 sequences from the DeepSol protein solubility set.

The nature of this data set: soluble on expression in E. coli; label from the status in PepcDB or PDB records.
For “MGSDKIHHHHHHMNKTLVIGAAFVDVIVDVPKLPKTGDDIPGNLKSYVVGGSAFNVFGTLKHEKINTDLFVPVGEGNYANQIKEKMRELKIPIKLPVRGNDNGWDISFIEPGGERSFLTIQGIEQDWKTEWFKTININEYKYFYLSGYEMENENAGKVILKELQKRIPESLLLFDASPRISSISKTIIQKIMKKNVIINCNKEEANYFMPKGHSLEEKARRIYAKTESPVIVTLGSNGSYYYDGNDHIIPSEKKDKIINTIGAGDTHCGGILAGLNKDMSFKDSVILANRLSGLVVEKESGSL”, the “soluble on expression in E. coli” value is “not soluble”.
Take “MAHHHHHHMGYTRERTNRHFFVARANAFFSRLPIARVQRSLAMEAVREGRMRPWKYTKEQILGAPVTCNFEYNPRPVRLIGTVMDAHTEETSIKGGLKVYARNEETNMMLWIPPGNPKLRHEVTSTKGSFQHYLDERDKWDEAWITGRARMK”: the “soluble on expression in E. coli” value is on record as “not soluble”.
As for “MSRYGRYGGETKVYVGNLGTGAGKGELERAFSYYGPLRTVWIARNPPGFAFVEFEDPRDAEDAVRGLDGKVICGSRVRVELSTGMPRRSRFDRPPARRPFDPNDRCYECGEKGHYAYDCHRYSRRRRSRSRSRSHSRSRGRRYSRSRSRSRGRRSRSASPRRSRSISLRRSRSASLRRSRSGSIKGSRYFQSPSRSRSRSRSISRPRSSRSKSRSPSPKRSRSPSGSPRRSASPERMD”, the “soluble on expression in E. coli” value is given as “not soluble”.
With “MGSDKIHHHHHHLGFILDKSGLIPPSIDFPELIKAGREQLHRETDYEQEARHLDMFFKLMAGDKCFEVPRINQEFTTDKTLAMEFKEGVTIDQIVSANYNVKNKAVLNLIDLFFRELFEFNLIQSDPNYANFLFDEKNGKIILLDFGATIPVSSDTLAKFKALFNETLGQNKKSVENAMYQLGILDKGLPSHILNELTDIYWDSTEPIRKNKMFDFGNSNILERMQELSSEIIVHRKKIKIPPFDILSIQRKIGGIFLLARRFEAKINLNKIFEK”, the “soluble on expression in E. coli” value was “not soluble”.
In the case of “MTGAATAAENSATQLEFYRKALNFNVIGRYDPKIKQLLFHTPHASLYKWDFKKDEWNKLEYQGVLAIYLRDVSQNTNLLPVSPQEVDIFDSQNGSNNIQVNNGSDNSNRNSSGNGNSYKSNDSLTYNCGKTLSGKDIYNYGLIILNRINPDNFSMGIVPNSVVNKRKVFNAEEDTLNPLECMGVEVKDELVIIKNLKHEVYGIWIHTVSDRQNIYELIKYLLENEPKDSFA”, the “soluble on expression in E. coli” value is given as “soluble”.
With “MSLEHFFTGTVDRIIFENAANFFKILLLAIEDTDSDIDDFEIIITGTMADIIEGDDYTFWGELTQHPKYGQQLKLSRYQKIKPSSSGLVNYFSSDHFKGIGKKTAEKIIALYGHNTIDHILEDPSKLETISGLSKANRQAFVAKLKLNYGTEQLIAGLVELGLSNRFALQAFEKYKEEALDLVKENPYQLVEDLQGFGFKMADALAENLGIESDSPKRFRAALLHCLLEESINRGDTYVQARQLLDFAITLLEDARQVECDPAAVAEQLSELIIEGKIKNSDTKLFDASLYFAEEGIANNISRLLDTPLSQSFSHDTIQTTIQAVQKDFAITYDQVQQEAITKALTSKVFLLTGGPGTGKTTVIRGILQAYANLHQIDLDKKDLPILLAAPTGRAARRMNELTGLPSATIHRHLGLNGDNDYQAMEDYLDCDLLIVDEFSMVDTWLANQLLGAINSTTQVIIVGDSDQLPSVGPGQVLSDLLKVNSLPQIALQKIFRQSQESTIVNLADQMRRGILAADFRDKKADRSYFEAQAAFIPDMIQKIVLSAIKSGIPAEEIQILAPMYKGQAGINHLNQLMQELLNPLQGQTEFLFNDTHFRKGDKVLHLVNDAQLNVFNGDIGYITDLIPAKYTESKQDELILDFDGSEVTYPRNEWLKLTLAYAMSIHKSQGSEFQVVILPITRQSGRLLQRNVIYTAITRSKSKLILLGEYTAFEYAIKHEGDKRQTYLIERFQEQSDLASSEGHHHHHH” the entry was “soluble”; with “MGSDKIHHHHHHMKKISYIFASILLTASLSGCNDFLDVTPSDQYSDASVFTSTEGAQQVLIGAYDWFTNGHYAHYTNQYIFFMPDVMADDAMVNSTGNYNRFVSPYQYSITPSSTYSVDPWIGCYSLIDNCNAILDNLETLPESSERNRIEGESLALRTYAYHYLIRMYAKPVNKYPDNPGVILRLTSSTTDIPRSTVKDCYVQMVNDIEKACTLLTGTSSSSKCYITEQAAHGIAARIYLDLGDYTNGTSHANKALSEITLMSKADYKNKFCENNTETIWYFTCTSTDKQSFLSLPAFWYYCDQDSTYVKDGYSSLGVAKELIDIFDDTDIRKTLFVKIDGKYYKRNGSYVTCKINSRKNDDSDGTKGSGTVAFAEGDYNMMRGSEMYLIIAELAADNNHEDEALAALNKVREARGISAYSGTGDVLKTEIQNERRRELFAEGHRLFDLKRRDLPMDRSNLTLDWSRVGLIPAGSDKLEMPIPQNEIDANGALTIADQNPAYK”, “not soluble”; with “MVLPALPAPPVCDSQNECVGWLGVAYSAVVDVIRAAAHEGVYIEPEARGRLDALREWIYYNYYTERAKRRDRRRRSVCHARTWFCFRKYDYVRRSIWHDTTTNTISVVSAHSVQ”, “soluble”.
In the case of “MDMDEKDVVETEEESFAELFEKSNSETQRLRPGSKVEGKILKIGAEWVFIDIGKKGEGVMERKELQDAEGNLTVAEGDTITAWFTGSVRNEMRFTTKLGAGAAANAQLEEAHRSGIPVEGFVVKEIKGGFEVRLSGTTRAFCPFSQISLRRAENPAEFVGKHLLFKVTEYSERGRNIVLSHRQILEEEQRVKREALKEVLLEGMTVTGTVTRLADFGAFVDLGGVDGLIPVSEVGWTRVKHVRDVLSVGEQVSVVIKKIDWEAGKISLSLKDTLADPWTTVAEQFPEGSYHTGTVARLAAFGAFVTLAPGIDGLIHISKLGKGKRINHPSDVLKEGETVEVKVDGVDREARRLSLALAEVSRAAEEEEKSVASFRQQATSSSKESMGSFGDLLKAKIEEKRLEHHHHHH”, the “soluble on expression in E. coli” value was “not soluble”.
On to “MVKVTYDIPTCEDYCALRINAGMSPKTREAAEKGLPNALFTVTLYDKDRLIGMGRVIGDGGTVFQIVDIAVSKSYQGQDYGSLIMEHIMKYIKNVSVESAYVSLIADYPADKLYAKFGFMPTEPDSGGMYIKY”, for which the “soluble on expression in E. coli” value was “soluble”.
As for “AIPAPTDLKFTQVTPTSLSAQWTPPNVQLTGYRVRVTPKEKTGPMKEINLAPDSSSVVVSGLMVATKYEVSVYALKDTLTSRPAQGVVTTLENVSPPRRARVTDATETTITISWRTKTETITGFQVDAVPANGQTPIQRTIKPDVRSYTITGLQPGTDYKIYLYTLNDNARSSPVVIDASTAIDAPSNLRFLATTPNSLLVSWQPPRARITGYIIKYEKPGSPPREVVPRPRPGVTEATITGLEPGTEYTIYVIALKNNQKSEPLIGRKKT”, the “soluble on expression in E. coli” value was “soluble”.
“GVTGVTTGFTDLDKKTAGLQPSDLIIVAARPSMGKTTFAMNLCENAAMASEKPVLVFSLEMPAEQIMMRMIASLARVDQTKIRTGQNLDEIEWNKIASVVGMFKQKNNLFIDDSSGLTPTDVRSRARRVYRENGGLSMIMVDYLQLMRAPAFSDNRTLEIAEISRSLKALAKELQVPVVALSQLNRTLEQRGDKRPVNSDL”: the “soluble on expression in E. coli” value is “not soluble”.
On to “MSLLTVVHDQDSSNEDACGSRSLLDEIVRDGARQMLAAALAAEVAAYIDAHAGEVDENGHRLVVRNGYHREREVLTAAGAVTVIAPRVNDKRIDADTAERRRFSSAILPAWARKSPQMTEVLPLLYLHGLSTSDFGPALEQFLGSGAGLSATTITRLTAQWQDEAKAFGERDLSGTDYVYLWVDGIHLKVRLEQEKLCLLVMIGVRSDGRKELVGLADGYRESTESWADLLRSCRRRGMTAPVLAVGDGALGFWKAMREVFPATREQRCWFHKQANVLSCLPKSAHPGALAAMREIYNAEDIDHAQVAIKAFEVDYGAKYPKAVAKIVDDADVLLEFYRYPAEHWIHLRTTNPIESTFATVRLRTKVTKGPGSRAAGIAMAYKLIDAAQARWRAVNAPHLVALVRAGAVFHKGKLLEREGHHHHHH”, for which the “soluble on expression in E. coli” value was “not soluble”.
Turning to “SLSGNGFDAILALSHRTSHTTYGNPFFSDVIQSISAVSEQNNFDLILQTAKTPEEELEKCAKKIQEKMIRGIIILSSTMDETLLFELDQYNIPIVVIGKVGNDYTNIYSVDTDNFQDSYDLVETLIKNGHRHIGCLHAPTEVYVSNDRLNGYRQCLFDHHLDIRNEWIIDGGFRLEDSMAAMNDLMKLRERPTAIFSTDALKSLSIYKVAEQSGKQIPDDLSIAGFSDPLLSSLFSPQLTRIDIPTNQLGIKATELLFQLIHHQYPEEKRIILSTEITLTDSI”, the “soluble on expression in E. coli” value was “soluble”.
Take “MAHHHHHHMMRRMWVPTFSAQQQHLHHAMGLKMLTYASTPSGSGVTSAASNEEMNLHDAAAIAPGPYRRVGNIFIVHCDDHPFKHSWEVNRMLRELRLEFKGQTTIVPDIPQVRKRIWRVRHIVKVDVLDLDEAKALIGVPEHISFTDLASQLPPSFGRVKAVPSPVIRSKMNFMKLRRMRLRDVLHRDALELRLLELKRSAMKNAEQQKHAQK”: the “soluble on expression in E. coli” value was “not soluble”.
For “RRKPGKCPVTYGQCLMLNPPNFCEMDGQCKRDLKCCMGMCGKSCVSPVKA”, the “soluble on expression in E. coli” value is “soluble”.
With “SMQQRKVLTLEKEDNQTFGFEIQTYGLHHREEQRVEMVTFVCRVHESSPAQLAGLTPGDTIASVNGLNVEGIRHREIVDIIKASGNVLRLETLYSSTL” the entry was “soluble”.
In the case of “KESILAVLLYLFEYYFSENADLVRDRDSLQNSLIQVGFSPAEINKAFEWLDALAANRPTLTNPRVNGPVRVLHGPELDKLDVESRGFLLFLEQQGILNTEQRELVLDRAMALDQEELDLDDMKWVVLMVLFNQPGAEAAYAWMETQMFGNEPEQLH”, the “soluble on expression in E. coli” value is given as “not soluble”.
As for “GPGSMLWVDRYRPKTLKDVELYPELKEVLTRLSKAQDLPHLLFYGPSGSGKKTRAMAMLHEIYGPSVFSVRLEHKSVQVSDSKVVDIATLSSPHHIDINPSDAGNYDRAIVMQMIREIAQTVPLHSTSGNRKNVPYKVVVLNEVDKMSRTAQHALRRTMEKYMNTCRLFLLCNSTSRLIPPLRSRCLGIRVASHSKDNLKLAVQRVCEGEGRPLPSVAFLNSLALRSDGNLRRGLLMLEASALAKVDWSGNGAAIPQADWKLFLDEISHDIVAEQTPKRLHEVRLKFYDLLAQCISGETILKTLVDSLLAAVAPALQRPLIELAAKYDHNMKLGTKPILHLEAFVAAVMKLIKQQ”, the “soluble on expression in E. coli” value is “not soluble”.
“EPTNAPAALSRRFSVAPMMDWTDRHCRFFLRQLSRHTLLYTEMVTTGALLHGDRQRFLRYDECEHPLALQLGGSVPAELAACARLAEEAGYDEVNLNVGCPSDRVQHNMIGACLMGHPALVADCVKAMLDAVEIAVTVKHRIGINGRDSYAELCDFVGQVREAGCRSFTVHARIAILEGLSPKENREVPPLRYEVAAQLKKDFPDLEIVLNGGIKTLEACREHLQTFDGVMLGREAYHNPYLLAAVDSQLFGSEAPPLSRSEALLRLRPYIERHQAEGGAMHHVTRHILGLAQGFPGSRRFRQLLSVDVHKAADPLRVFDQA”: the “soluble on expression in E. coli” value was “not soluble”.
As to “MGSDKIHHHHHHMAVILFDIDGTLIDSTDQMTEAIHLAMEDMPHLVKPSKASVQSSYGLAGNAFWRKAIPDASENDIKEIRRKRHHHLEQTMQNQDVLFDGIRELLEQLTNQGHIVSTASNCGVHYLNLVLDSQNIRSYFTSPKCLESVNGKQKADILAAHREEFSEVDYLMVGDRSSDVEAARLQNMPVAICCFGFGTEQEWKTADHQLETPLDLLKFV”, the “soluble on expression in E. coli” value is listed as “not soluble”.
As to “MRMNLTNHFLVAMPGMKDPYFQNSVIYVCEHNEEGAMGLMINAPVDITVGNMLKQVDVQPVHPRLFEASLDRPVYNGGPISEDRGFILHKPKDYYESSIQMTDDLAVTTSRDILSVLGTEAEPSDYLVALGYSGWSAGQLENELVENSWLTIEATPEIIFDTPITERWKKAVEKLGIDPSQLSADAGHALEHHHHHH”, the “soluble on expression in E. coli” value is recorded as “soluble”.
